Laboratory results reported in article PMC10542350, “Structural basis of nucleosome deacetylation and DNA linker tightening by Rpd3S histone deacetylase complex” (Cell Research, 2023).

Molecular target: the molecule itself
Experiment: cryo-EM structure; purified apo Rpd3S complex; 3D map of 3.5 Å

B1: Rco1 (natural protein, Saccharomyces cerevisiae, UniProt Q04779 1-684, looked up)
chain: MDTSKKDTTRSPSHSNSSSPSSSSLSSSSSKEKKRPKRLSSQNVNYDLKRRKIITSEGIERSFKNEHSNLAVEDNIPEEEPKELLEKDSKGNIIKLNEPSTISEDSKVSVTGLPLNKGPSEKIKRESLWNYRKNLGGQSNNSEMTLVPSKRFTQVPKNFQDLNRNDLKTFLTENMTEESNIRSTIGWNGDIINRTRDREPESDRDNKKLSNIRTKIILSTNATYDSKSKLFGQNSIKSTSNASEKIFRDKNNSTIDFENEDFCSACNQSGSFLCCDTCPKSFHFLCLDPPIDPNNLPKGDWHCNECKFKIFINNSMATLKKIESNFIKQNNNVKIFAKLLFNIDSHNPKQFQLPNYIKETFPAVKTGSRGQYSDENDKIPLTDRQLFNTSYGQSITKLDSYNPDTHIDSNSGKFLICYKCNQTRLGSWSHPENSRLIMTCDYCQTPWHLDCVPRASFKNLGSKWKCPLHSPTKVYKKIHHCQEDNSVNYKVWKKQRLINKKNQLYYEPLQKIGYQNNGNIQIIPTTSHTDYDFNQDFKITQIDENSIKYDFFDKIYKSKMVQKRKLFQFQESLIDKLVSNGSQNGNSEDNMVKDIASLIYFQVSNNDKSSNNKSASKSNNLRKLWDLKELTNVVVPNELDSIQFNDFSSDEIKHLLYLKKIIESKPKEELLKFLNIENPENQSE
notes: Rco1, Saccharomyces cerevisiae; two copies (Rco1A, Rco1B) stand in the Rpd3S complex; also called Rco1A; Rco1B; source: High Five insect cells (baculovirus), co-expressed with the other Rpd3S subunits; purified as part of the complex (streptavidin column, Resource Q, gel filtration); not shown: double StrepII, C-terminal, kept
binding result: binds
